2 substances from patent US20230227512A1 can be followed below.

Experiment [1] has as its target BG505 SOSIP.664 trimer+sCD4 complex (HIV-1 strain BG505; human) (UniProt P01730). Kind of experiment: SPR read-out on captured 3074 IgG of trimer incubated with sCD4.
For experiment [2], the target named is BG505.SOSIP.664.201C-433C HIV-1 Env ectodomain trimer (HIV-1 strain BG505). As to the kind of experiment: SPR, single-cycle kinetics. In general terms: In SPR one partner is held on a chip, and binding of the other changes the refractive index at the surface.

Regarding 3074 antibody, in experiment [1], the t1/2 of CD4-induced appearance of binding came out at 4.2 h.
Consider “soluble CD4 (sCD4) (from UniProt P01730 26-208) (receptor)”, for which, in experiment [2], the fold faster off-rate relative to parent SOSIP.664 was 10 fold and the fold reduction in KD (affinity) relative to SOSIP.664 came out at 10 fold.
